Experimental data as given in the RNAGym collection of RNA variant scans (doi:10.1101/gr.219683.116).

B1: mRNA-splicing (parent)
chain: AGUUGCUGCUGGGAGCUCCAGCACAGUGAAAUGGACAGAAGGGCAGAGCAA

Variants of: B1
Assay: exon inclusion enrichment index; higher = more inclusion; WT1 exon 5 minigene, HEK293

First: AGUUCACACAGGGAGCUCCAGCACAGUGAGCUGGACAGAAGGGCAGAGCAA
Second: AGUUCACACAGGGAGCUCCAGCACAGUGAGGUGGACAGAAGGGCAGAGCAA
The “exon inclusion enrichment index” value of the first is lower: 0.00678 for the first, 0.0207 for the second.

Compared with AGUUCACACAGGGAGCUCCAGCACAGUGAGUUGGACAGAAGGGCAGAGCAA, AGUUCACACAGGGAGCUCCAGCACAGUGCGAUGGACAGAAGGGCAGAGCAA is higher in “exon inclusion enrichment index” value: 0.018 for the first, 0.291 for the second.

Compared with AGUUCACACAGGGAGCUCCAGCACAGUGCUAUGGACAGAAGGGCAGAGCAA, AGUUCACACAGGGAGCUCCAGCACAGUGCCAUGGACAGAAGGGCAGAGCAA is higher in “exon inclusion enrichment index” value: 0.0384 for the first, 0.217 for the second.

First: AGUUCACACAGGGAGCUCCAGCACAGUGAUUUGGACAGAAGGGCAGAGCAA
Second: AGUUCACACAGGGAGCUCCAGCACAGUGAUGUGGACAGAAGGGCAGAGCAA
The “exon inclusion enrichment index” value of the first is lower: 0.0758 for the first, 0.105 for the second.

First: AGUUCACACAGGGAGCUCCAGCACAGUGAUCUGGACAGAAGGGCAGAGCAA
Second: AGUUCACACAGGGAGCUCCAGCACAGUGAAAUGGACAGCUGGGCAGAGCAA
The “exon inclusion enrichment index” value of the first is higher: 0.143 for the first, 0.0879 for the second.

First: AGUUCACACAGGGAGCUCCAGCACAGUGAAAUGGACAGCGGGGCAGAGCAA
Second: AGUUCACACAGGGAGCUCCAGCACAGUGAAAUGGACAGCCGGGCAGAGCAA
The “exon inclusion enrichment index” value of the first is lower: 0.142 for the first, 0.334 for the second.

First: AGUUCACACAGGGAGCUCCAGCACAGUGAAAUGGACAGCAGGGCAGAGCAA
Second: AGUUCACACAGGGAGCUCCAGCACAGUGAAAUGGACAGGAGGGCAGAGCAA
The “exon inclusion enrichment index” value of the first is lower: 0.0137 for the first, 0.0326 for the second.

First: AGUUCACACAGGGAGCUCCAGCACAGUGAAAUGGACAGUAGGGCAGAGCAA
Second: AGUUCACACAGGGAGCUCCAGCACAGUGAAAUGGACCUAAGGGCAGAGCAA
The “exon inclusion enrichment index” value of the first is lower: 0.00393 for the first, 0.0457 for the second.

Going from AGUUCACACAGGGAGCUCCAGCACAGUGAAAUGGACCCAAGGGCAGAGCAA to AGUUCACACAGGGAGCUCCAGCACAGUGAAAUGGACCAAAGGGCAGAGCAA, the “exon inclusion enrichment index” value falls from 0.176 to 0.149.

Going from AGUUCACACAGGGAGCUCCAGCACAGUGAAAUGGGAAGAAGGGCAGAGCAA to AGUUCACACAGGGAGCUCCAGCACAGUGAAAUGGGGAGAAGGGCAGAGCAA, the “exon inclusion enrichment index” value falls from 0.0625 to 0.00494.

Going from AGUUCACACAGGGAGCUCCAGCACAGUGAAAUGGGUAGAAGGGCAGAGCAA to AGUUCACACAGGGAGCUCCAGCACAGUGAAAUGGACUGAAGGGCAGAGCAA, the “exon inclusion enrichment index” value rises from 0.00147 to 0.0984.

Going from AGUUCACACAGGGAGCUCCAGCACAGUGAAAUGGACCGAAGGGCAGAGCAA to AGUUCACACAGGGAGCUCCAGCACAGUGAAAUGGACGGAAGGGCAGAGCAA, the “exon inclusion enrichment index” value falls from 0.426 to 0.237.

Going from AGUUCACACAGGGAGCUCCAGCACAGUGAAAUGGACAGGCGGGCAGAGCAA to AGUUCACACAGGGAGCUCCAGCACAGUGAAAUGGACAGGGGGGCAGAGCAA, the “exon inclusion enrichment index” value falls from 0.119 to 0.0106.

First: AGUUCACACAGGGAGCUCCAGCACAGUGAAAUGGACAGGUGGGCAGAGCAA
Second: AGUUCACACAGGGAGCUCCAGCACAGUGAAAUGGACAGUUGGGCAGAGCAA
The “exon inclusion enrichment index” value of the first is lower: 0.0129 for the first, 0.036 for the second.

First: AGUUCACACAGGGAGCUCCAGCACAGUGAAAUGGACAGUGGGGCAGAGCAA
Second: AGUUCACACAGGGAGCUCCAGCACAGUGAAAUGGACAGUCGGGCAGAGCAA
The “exon inclusion enrichment index” value of the first is lower: 0.0214 for the first, 0.195 for the second.

First: AGUUCACACAGGGAGCUCCAGCACCCUGAAAUGGACAGAAGGGCAGAGCAA
Second: AGUUCACACAGGGAGCUCCAGCACCAUGAAAUGGACAGAAGGGCAGAGCAA
The “exon inclusion enrichment index” value of the first is lower: 0.037 for the first, 0.352 for the second.

First: AGUUCACACAGGGAGCUCCAGCACCUUGAAAUGGACAGAAGGGCAGAGCAA
Second: AGUUCACACAGGGAGCUCCAGCACAGUGAAAUGGGCAGAAGGGCAGAGCAA
The “exon inclusion enrichment index” value of the first is higher: 0.241 for the first, 0.0247 for the second.

Going from AGUUCACACAGGGAGCUCCAGCACAGUGAAAUGGCCAGAAGGGCAGAGCAA to AGUUCACACAGGGAGCUCCAGCACAGUGAAAUGGUCAGAAGGGCAGAGCAA, the “exon inclusion enrichment index” value falls from 0.0232 to 0.00802.

First: AGUUCACACAGGGAGCUCCAGCACAGUGAAAUGGACAGAAGGGCCGAGCAA
Second: AGUUCACACAGGGAGCUCCAGCACAGUGAAAUGGCAAGAAGGGCAGAGCAA
The “exon inclusion enrichment index” value of the first is higher: 0.18 for the first, 0.0377 for the second.

Going from AGUUCACACAGGGAGCUCCAGCACAGUGAAAUGGCUAGAAGGGCAGAGCAA to AGUUCACACAGGGAGCUCCAGCACAGUGAAAUGGCGAGAAGGGCAGAGCAA, the “exon inclusion enrichment index” value rises from 0.0111 to 0.107.

First: AGUUCACACAGGGAGCUCCAGCACAGUGAAUCGGACAGAAGGGCAGAGCAA
Second: AGUUCACACAGGGAGCUCCAGCACAGUGAAUAGGACAGAAGGGCAGAGCAA
The “exon inclusion enrichment index” value of the first is higher: 0.293 for the first, 0.00816 for the second.

First: AGUUCACACAGGGAGCUCCAGCACAGUGAAUGGGACAGAAGGGCAGAGCAA
Second: AGUUCACACAGGGAGCUCCAGCACAGUGAAAUGGACUAAAGGGCAGAGCAA
The “exon inclusion enrichment index” value of the first is lower: 0.0217 for the first, 0.0332 for the second.

First: AGUUCACACAGGGAGCUCCAGCACAGUGAAAUGGACUUAAGGGCAGAGCAA
Second: AGUUCACACAGGGAGCUCCAGCACAGUGAAAUGGACUCAAGGGCAGAGCAA
The “exon inclusion enrichment index” value of the first is lower: 0.0186 for the first, 0.0672 for the second.

First: AGUUCACACAGGGAGCUCCAGCACUAUGAAAUGGACAGAAGGGCAGAGCAA
Second: AGUUCACACAGGGAGCUCCAGCACUCUGAAAUGGACAGAAGGGCAGAGCAA
The “exon inclusion enrichment index” value of the first is lower: 0.172 for the first, 0.181 for the second.

Compared with AGUUCACACAGGGAGCUCCAGCACUUUGAAAUGGACAGAAGGGCAGAGCAA, AGUUCACACAGGGAGCUCCAGCACGCUGAAAUGGACAGAAGGGCAGAGCAA is higher in “exon inclusion enrichment index” value: 0.111 for the first, 0.647 for the second.

For AGUUCACACAGGGAGCUCCAGCACGAUGAAAUGGACAGAAGGGCAGAGCAA, the “exon inclusion enrichment index” value was 0.663.
